For the test, the target named is serpin-6, endogenous in silkworm hemolymph (Bombyx mori (endogenous in larval hemolymph)). Put plainly: co-IP; antibodies against serpin-1 or serpin-6; hemolymph of naive larvae or of larvae 24 h after injection of LPS, PGN or CDN; immunoblot with antibodies against serpin-1a, serpin-6 and CLIP2.

“CLIP2, endogenous in silkworm hemolymph (enzyme)” returned an intensity of the complex against the CLIP2-serpin-1a complex (after PAMPs stimulation, control hemolymph subtracted) of 2 fold.

These data come from paper PMC10629668.
